# Assay results from PMC3072279 (Biochemistry, 2011).
# B1: DCAF1 817–1507, C-terminally His6-tagged (domain or fragment)
# chain: not shown
# Target: the molecule itself
# Assay: SEC-MALS
protein,measurement,value
B1,stoichiometry N,2
